# Results published in patent US11787846B2, “EphA2 T-cell epitope agonists and uses therefore” (UNIVERSITY OF PITTSBURGH—OF THE COMMONWEALTH SYSTEM OF …, priority 2003, dated 2023).
# B1: B61.Ig: chimeric protein consisting of the ligand binding domain of ephrin-A1 fused with the Fc portion of a mouse IgG antibody (protein)
# chain: DRHTVFWNSSNPKFRNEDYTIHVQLNDYVDIICPHYEDHSVADAAMEQYILYLVEHEEYQLCQPQSKDQVRWQCNRPSAKHGPEKLSEKFQRFTPFTLGKEFKEGHSYYYISKPIHQHEDRCLRLKVTVSGKITHSPQAHDNPQEKRLAADDPEVRVLHSIGHS
# modifications: left off: a dimerising Fc or GST
# How the values were obtained:
# SLR24 RCC cells = experiment: IFN-γ ELISPOT, recognition of SLR24 by anti-EphA2 CTL clone CL.142; type: cell-based, human; settings: B61.Ig 30 μg/ml overnight, relative to untreated cells
# SLR24 tumors = experiment: Hu-SCID tumor model; type: in vivo, C.B-17 scid/scid mice
# EphA2 [1] = target: T1, EphA2 (Homo sapiens, UniProt P29317); experiment: EphA2 immunoprecipitation and anti-phosphotyrosine Western blot; type: cell-based; parameters: endogenous in cells; host or cells: PC3 prostate carcinoma cells (A9, A10); SLR24 renal cell carcinoma cells (A10); settings: PC3 cells; B61.Ig 30 μg/ml or mAb208 8 μg/ml
# Procedure: (§1) Western Blot Analyses. Tumor cells were grown to 80-90% confluency, serum starved overnight, then treated with agonists where indicated. In addition, resected SLR24 lesions were obtained pre- and 24 h post-intratumoral injection with B61-Ig, as outlined below. Tumor samples were analyzed for EphA2 expression via Western blots using the rabbit anti-human EphA2 polyclonal antibody (clone: C-20), Santa Cruz Biotechnology, Inc., Santa Cruz, Calif.). In some experiments, samples were also analyzed for Axl (clone C-20, Santa Cruz Biotechnology, Santa Cruz, Calif.) protein content. Single tumor cell suspensions isolated from confluent tissue culture flasks or from the enzymatic digestion of resected lesions were lysed using 500·mu·l lysis buffer (1% Triton-X, […], 10 mM Tris pH 7.4, 1 mM EDTA, 0.2 mM SOV, 0.5% NP-40) in PBS containing protease inhibitors (Complete, Roche Diagnostic, Mannheim, Germany) for 30 min at 4° C. After centrifugation at 13,500×g for 20 minutes, the supernatant was mixed 1:1 with SDS-PAGE running buffer and proteins separated on 7.5% PAGE gels, prior to electro-blotting onto nitrocellulose membranes (Millipore, Bedford, Mass.). […]
# EphA2 [2] = target: T1, EphA2; experiment: Western blot of EphA2 in resected SLR24 lesions after B61-Ig; type: in vivo, C.B-17 scid/scid mice; parameters: resected SLR24 lesions were obtained pre- and 24 h post-intratumoral injection with B61-Ig; from tissue; host or cells: SLR24 human RCC xenograft lesions resected from C.B-17 scid/scid mice; settings: SLR24 tumors resected 24 hours after B61-Ig
# Procedure: as §1, with “C.” for “C. After centrifugation at 13,500×g for 20 minutes, the supernatant was mixed 1:1 with SDS-PAGE running buffer and proteins separated on 7.5% PAGE gels, prior to electro-blotting onto nitrocellulose membranes (Millipore, Bedford, Mass.).”
# Hu-SCID Tumor Model. […] Animals were evaluated every 3-4 days for tumor size, with tumor-free status noted on day 40 post-tumor inoculation. […]
# EphA2 Agonist Treatment Enhances the efficacy of adoptively transferred anti-EphA2 CD8^+ T Cells in a Hu-SCID Tumor Model. […] Animals were evaluated every 3-4 days for tumor size, with tumor-free status noted on day 40 post-tumor inoculation. […]
# EphA2 [3] = target: T1, EphA2; experiment: Western blot of EphA2 protein degradation in tumor cells; type: cell-based; parameters: PC3 (left panel) and SLR24 (right panel) cells were treated for 6 hours with either B61.Ig; endogenous in cells; host or cells: PC3 prostate carcinoma cells (A9, A10); SLR24 renal cell carcinoma cells (A10); settings: PC3 and SLR24 cells; 6 hours; B61.Ig 30 μg/ml or mAb208 8 μg/ml
# [4] = single therapy: B61-Ig 50 μg intratumoral d18 or 5×10^6 E883 T cells i.v. d19
molecule,measurement,setting,value
B1,CL.142 recognition of SLR24 (IFN-γ ELISPOT),SLR24 RCC cells,significantly enhanced
same,Benefit vs. B61-Ig treatment alone,"SLR24 tumors; B61-Ig combined with CD8+ T cells specific for influenza matrix58-66, data not shown",no enhanced benefit
same,Resolution of disease (treated mice),"SLR24 tumors; combination: B61-Ig 50 μg intratumoral d18 plus 5×10^6 E883 anti-EphA2 CD8+ T cells i.v. d19, tumor-free status day 40",5/5
same,Animals cured,SLR24 tumors; [4],no animals were cured
same,SLR24 tumor growth,SLR24 tumors; [4],delayed growth
same,EphA2 phosphorylation (phosphotyrosine content),EphA2 [1],Induce EphA2 Phosphorylation
same,EphA2 processing/degradation in situ,EphA2 [2],promoted EphA2 processing in situ
same,EphA2 protein degradation,EphA2 [3],Degradation
